Data on one substance can be found in patent publication US20100092974A1, “METHODS FOR SCREENING FOR MODULATORS OF CCRL2” (The Board of Trustees of the Leland Stanford Junior …, priority 2008, published 2010).

Experiment [1] deals with T1, FcRεI (Mus musculus, UniProt P20489).
T1 construct: endogenous in cells; host or cells: mouse peritoneal mast cells
T1 sequence (P20489 24-250): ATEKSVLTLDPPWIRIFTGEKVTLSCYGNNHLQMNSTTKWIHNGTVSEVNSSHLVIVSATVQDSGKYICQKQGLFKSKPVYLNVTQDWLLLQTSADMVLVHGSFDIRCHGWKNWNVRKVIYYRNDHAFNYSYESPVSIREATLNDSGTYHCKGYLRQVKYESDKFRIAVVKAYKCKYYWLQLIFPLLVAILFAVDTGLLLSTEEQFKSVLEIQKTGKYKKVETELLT
T1 sequence (P20490 1-235 partner): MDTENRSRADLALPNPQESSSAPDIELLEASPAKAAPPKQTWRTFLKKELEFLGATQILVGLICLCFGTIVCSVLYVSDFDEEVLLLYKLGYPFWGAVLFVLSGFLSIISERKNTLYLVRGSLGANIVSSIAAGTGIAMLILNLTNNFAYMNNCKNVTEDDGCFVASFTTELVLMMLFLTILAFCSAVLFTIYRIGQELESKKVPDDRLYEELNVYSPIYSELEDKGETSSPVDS
T1 sequence (P20491 19-86 partner): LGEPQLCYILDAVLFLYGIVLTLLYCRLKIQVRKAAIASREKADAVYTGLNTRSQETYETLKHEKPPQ
Nature of the experiment: IgE binding to FcRεI on peritoneal mast cells (specificity control). As to conditions: 1000 nM chemerin.

The target in experiment [2] is T2, mCMKLR1 (Mus musculus, UniProt P97468).
T2 construct: expressed in transfected cells; host or cells: L1.2 mouse pre-B lymphoma cells
T2 sequence (P97468 1-371): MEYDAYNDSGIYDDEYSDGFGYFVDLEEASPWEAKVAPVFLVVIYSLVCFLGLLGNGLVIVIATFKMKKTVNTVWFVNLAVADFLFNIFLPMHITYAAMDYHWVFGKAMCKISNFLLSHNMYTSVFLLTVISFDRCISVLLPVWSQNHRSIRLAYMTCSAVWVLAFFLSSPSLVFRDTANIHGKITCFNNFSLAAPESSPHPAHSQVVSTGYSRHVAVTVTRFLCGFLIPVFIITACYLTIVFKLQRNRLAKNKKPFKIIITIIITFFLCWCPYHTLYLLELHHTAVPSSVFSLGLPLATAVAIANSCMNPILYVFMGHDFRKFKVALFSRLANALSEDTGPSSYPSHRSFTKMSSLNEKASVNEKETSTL
Nature of the experiment: immunofluorescence-based chemerin-binding assay, mCMKLR1-HA L1.2. The conditions noted are these: 10 nM His8-tagged chemerin, anti-His6 PE.

The subject of experiment [3] is mouse peritoneal mast cells. As to the kind of experiment: in vitro transwell chemotaxis, peritoneal mast cells. The format is cell-based. As to conditions: SSChigh CD11b- c-kit+ cells. How it is done:
For migration experiments using cell lines, 2.5×10^5 cells/100 μl chemotaxis media (RPMI+10% fetal calf serum) were added to the top wells of 5-um pore transwell inserts (Costar, Corning, N.Y., USA), and test samples in 600 μl media were added to the bottom wells. After incubating the transwell plates for 1.5 hours at 37° C., the bottom wells were harvested and flow cytometry was used to assess migration. For primary cell chemotaxis, 1×10^6 cells/100 μl were added to the top well, and, following a 2 hour incubation at 37° C., polystyrene beads (15.0 μm diameter, Polysciences, Warrington, Pa., USA) were added to each well to facilitate normalization of the cell count. The cells were then stained for c-kit, F4/80, and/or CD11b expression and analyzed by flow cytometry. A ratio was generated and percent input migration was calculated.

Experiment [4] addresses T3, huCCRL2 (Homo sapiens, UniProt O00421).
T3 construct: The coding regions of mCCRL2, huCCRL2, mCRTH2, and huCCR10 were amplified from genomic DNA; expressed in transfected cells
T3 sequence (O00421 1-344): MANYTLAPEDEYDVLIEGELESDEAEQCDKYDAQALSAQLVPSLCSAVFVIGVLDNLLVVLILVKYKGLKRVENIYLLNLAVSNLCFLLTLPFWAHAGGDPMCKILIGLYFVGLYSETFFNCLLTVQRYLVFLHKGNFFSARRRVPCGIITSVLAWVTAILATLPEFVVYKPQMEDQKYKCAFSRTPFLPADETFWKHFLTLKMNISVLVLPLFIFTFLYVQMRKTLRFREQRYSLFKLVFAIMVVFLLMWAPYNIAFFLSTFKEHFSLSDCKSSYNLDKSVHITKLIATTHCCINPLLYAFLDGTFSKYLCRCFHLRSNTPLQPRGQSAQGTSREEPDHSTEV
Nature of the experiment: receptor internalization assay, huCCRL2-HA L1.2. The format is cell-based. The conditions noted are these: 100 nM chemerin, 15 min. How it is done:
The cells were then washed with 200 μl PBS and stained with mouse anti-HA (Covance, Inc) or mIgG1 isotype control, followed by staining with secondary anti-mouse IgG1 PE, fixed, and analyzed by flow cytometry.

The target in experiment [5] is T4, CCRL2 (Mus musculus, UniProt O35457).
T4 construct: TNFα-treated bEND3 cells acquire CCRL2 surface protein (but not CMKLR1 expression); endogenous in cells; host or cells: bEND3 mouse brain endothelioma cells treated 24 h with 20 ng/ml TNFα
T4 sequence (O35457 1-360): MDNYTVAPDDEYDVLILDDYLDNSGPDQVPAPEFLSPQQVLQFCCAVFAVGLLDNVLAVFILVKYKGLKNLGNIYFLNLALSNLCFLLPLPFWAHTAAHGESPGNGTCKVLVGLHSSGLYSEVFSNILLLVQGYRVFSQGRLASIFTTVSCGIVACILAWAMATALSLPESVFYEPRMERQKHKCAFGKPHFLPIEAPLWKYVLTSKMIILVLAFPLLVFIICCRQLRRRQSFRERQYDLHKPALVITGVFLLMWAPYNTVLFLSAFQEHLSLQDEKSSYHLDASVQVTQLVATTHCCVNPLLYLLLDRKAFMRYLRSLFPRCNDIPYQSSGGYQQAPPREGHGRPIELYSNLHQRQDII
As to the kind of experiment: radiolabeled chemerin binding to TNFα-treated bEND3 cells. As to conditions: cells treated 24 hours with 20 ng/ml TNFα. An excerpt: FIG. 22. […] Panel A. Robust upregulation of CCRL2 RNA by microarray analysis (Affymetrix®). Panel B. TNFα-treated bEND3 cells acquire CCRL2 surface protein (but not CMKLR1 expression) as determined by mAb staining and flow cytometry. Panel C. […] CCRL2/L1.2 and empty vector pcDNA3/L1.2 transfectants are shown as controls. The mean+/−SD of triplicate wells is shown for an individual experiment. A representative data set of 2 performed with similar results is shown for parts B and C, and n=1 for part A.
The cells were washed in PBS and stained with secondary anti-rat IgG PE or anti-mouse IgE PE (+goat IgG) for 30 min on ice, washed with PBS, stained with directly conjugated F4/80 and c-kit mAbs, and analyzed by flow cytometry. […] For competition binding assays, L1.2 cells transfected with huCCRL2, mCCRL2, or mCMKLR1 were plated into 96-well plates at 0.5×10^6 cells/well. […]. For saturation binding assays, mCCRL2/L1.2 cells were plated at 0.5×10^6 cells/well. […] Binding was terminated by washing the cells in saline buffer, and bound radioactivity was measured. Data were analyzed using Prism (GraphPad Software). Binding data (triplicate or quadruplicate wells) were fitted to one-site binding hyperbola for saturation assays, or to a one-site competition curve for competition assays. […] […].

Consider “chemerin: protein ligand for signaling receptor CMKLR1; serum form human chemerin expressed in baculovirus-infected insect cells, His8-tag removed”, for which the “binding of IgE to FcRεI” value in experiment [1] is recorded as “unaffected”. In experiment [2], the chemerin binding result is reported as “unable to detect”. For the same substance, the transwell migration result in experiment [3] is recorded as “failed to migrate”. Moreover, the ligand-induced receptor internalization result in experiment [4] is on record as “failed to internalize”. Moreover, in experiment [5], the “chemerin binding to TNFα-treated bEND3 cells” value is “bind”.
